Values joined by “and” are separate entries in the source; they are usually repeats but may differ in a detail not shown here. Equal values may be shown once.
Legend:
[1] = biological target: N-terminally 6xHis-tagged HU-B co-expressed from pET-Duet-1 (E. coli K-12 sub-strain MG1655) (UniProt P0ACF4); test: SEC
[2] = biological target: N-terminally 6xHis-tagged HU-B co-expressed from pET-Duet-1 (E. coli K-12 sub-strain MG1655) (UniProt P0ACF4); test: pull-down
[3] = biological target: N-terminally 6xHis tagged HU-A (histidine-tagged E. coli HU-A) (E. coli K-12 sub-strain MG1655) (UniProt P0ACF0); test: SEC
[4] = biological target: N-terminally 6xHis tagged HU-A (histidine-tagged E. coli HU-A) (E. coli K-12 sub-strain MG1655) (UniProt P0ACF0); test: SEC; remark: listed apart in the source
[5] = biological target: N-terminally 6xHis tagged HU-A (histidine-tagged E. coli HU-A) (E. coli K-12 sub-strain MG1655) (UniProt P0ACF0); test: cross-linking
[6] = biological target: N-terminally 6xHis tagged HU-B (histidine-tagged E. coli HU-B) (E. coli K-12 sub-strain MG1655) (UniProt P0ACF4); test: cross-linking
[7] = biological target: N-terminally 6xHis tagged HU-B (histidine-tagged E. coli HU-B) (E. coli K-12 sub-strain MG1655) (UniProt P0ACF4); test: cross-linking; remark: listed apart in the source
[8] = biological target: N-terminally 6xHis tagged HU-B (histidine-tagged E. coli HU-B) (E. coli K-12 sub-strain MG1655) (UniProt P0ACF4); test: SEC
[9] = biological target: N-terminally 6xHis tagged HU-B (histidine-tagged E. coli HU-B) (E. coli K-12 sub-strain MG1655) (UniProt P0ACF4); test: SEC; remark: listed apart in the source
[10] = biological target: N-terminally 6xHis tagged HU-B (histidine-tagged E. coli HU-B) (E. coli K-12 sub-strain MG1655) (UniProt P0ACF4); test: cross-linking; remark: listed apart in the source
[11] = biological target: T1, TmRITC-labelled histidine-tagged HU-B, P0ACF4; test: FRET or BRET
T1 chain: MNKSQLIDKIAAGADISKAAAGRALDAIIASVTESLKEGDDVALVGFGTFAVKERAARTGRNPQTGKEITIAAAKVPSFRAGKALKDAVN

6xHis-HU-B = biological target: T2, 6xHis-HU-B (Escherichia coli K-12 MG1655, UniProt P0ACF4 1-90); test: EMSA
T2 sequence: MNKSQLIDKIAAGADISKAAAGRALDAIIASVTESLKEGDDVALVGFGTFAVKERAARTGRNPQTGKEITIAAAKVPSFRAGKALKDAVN

6xHis-HU-A = 6xHis-HU-A (Escherichia coli K-12 MG1655, UniProt P0ACF0 1-90); test: EMSA

“Tag-RFP fused to HU-A without a 6xHis tag (RFP-HU-A) (from UniProt P0ACF0 1-90) (natural protein)” was tested, and the heterodimer as percent of the total overexpressed HU population [1] was under 5%, the heterodimer as percent of the total overexpressed HU population [2] was under 5% and the percent of the total protein purified [2] was under 10%.

“N-terminally 6xHis tagged HU-A (histidine-tagged E. coli HU-A) (from UniProt P0ACF0 1-90) (natural protein)” gave a stoichiometry N [3] of 2, a stoichiometry N [4] of 2 and a stoichiometry N [5] of 2.

Molecule “N-terminally 6xHis-tagged HU-B co-expressed from pET-Duet-1 (from UniProt P0ACF4 1-90) (natural protein)” has a stoichiometry N [1] of 2.

For “N-terminally 6xHis tagged HU-B (histidine-tagged E. coli HU-B) (from UniProt P0ACF4 1-90) (natural protein)”, the stoichiometry N [6] was 2 and 4, the stoichiometry N [7] was 2 and 4 and the stoichiometry N [8] was 2. The stoichiometry N [9] was 2 and the stoichiometry N [10] was 2 and 4.

B1: FITC-labelled histidine-tagged HU-A (protein)
chain: MNKTQLIDVIAEKAELSKTQAKAALESTLAAITESLKEGDAVQLVGFGTFKVNHRAERTGRNPQTGKEIKIAAANVPAFVSGKALKDAVK
In the case of B1, the “percent heterodimers formed after mixing” value [11] is reported as “less than 5%”.

B2: 4WJ-DNA (Holliday junction) (structured_DNA)
DNA 1: CCCTATAACCCCTGCATTGAATTCCTGTCTGATAA
DNA 2: GTAGTCGTGATAGGTGCAGGGGTTATAGGG
DNA 3: AACAGTAGCTCTTAATTCGAGCTCGCGCCCTATCACGACTA
DNA 4: TTTATCAGACTGGAATTCAAGCGCGAGCTCGAATAAGAGCTACTGT
B2: binds (6xHis-HU-B); binds (6xHis-HU-A).
